Laboratory results: paper PMC12197737
Values joined by “and” are separate entries in the source; they are usually repeats but may differ in a detail not shown here. Equal entries are not always repeated.

Target: recombinant TSWV-N protein (tomato spotted wilt virus nucleocapsid N protein) (Tomato spotted wilt virus (TSWV))
Test: cross-linking

“recombinant TSWV-N protein (tomato spotted wilt virus nucleocapsid N protein) (natural protein)” was tested, and the stoichiometry N was 2 and 3.
